Reference: patent US20190010224A1 (Merck Sharp & Dohme, published 2019)

Legend:
recombinant human IL-10 [1] = biological target: T1, recombinant human IL-10 (human, UniProt P22301 19-178); assay: binding ELISA on immobilized recombinant human IL-10; potency relative to reference material; sample stored at 5 C, 1 month
T1 construct: Immobilized on ELISA microtiter plates; also called interleukin-10
Procedure: (§1) In the ELISA assay, individual dose response curves were generated by using a serial dilution of anti-IL10 reference material or test samples binding to recombinant human IL-10 immobilized on ELISA microtiter plates. Then, by using a SoftMax Pro GxP four-parameter logistic curve fitting analysis, EC₅₀ values of reference material as a control and test samples were determined and a reference-to-sample EC₅₀ ratio was calculated as relative potency for a test sample. Final results were reported as potency relative to reference material.

recombinant human IL-10 [2] = biological target: T1, recombinant human IL-10; assay: binding ELISA on immobilized recombinant human IL-10; potency relative to reference material; sample stored at 5 C, 3 months
Procedure: as §1

recombinant human IL-10 [3] = biological target: T1, recombinant human IL-10; assay: binding ELISA on immobilized recombinant human IL-10; potency relative to reference material; sample stored at 5 C, 6 months
Procedure: as §1

recombinant human IL-10 [4] = biological target: T1, recombinant human IL-10; assay: binding ELISA on immobilized recombinant human IL-10; potency relative to reference material; sample stored at 5 C, initial time point
Procedure: as §1

T1 sequence (P22301 19-178 limits assumed): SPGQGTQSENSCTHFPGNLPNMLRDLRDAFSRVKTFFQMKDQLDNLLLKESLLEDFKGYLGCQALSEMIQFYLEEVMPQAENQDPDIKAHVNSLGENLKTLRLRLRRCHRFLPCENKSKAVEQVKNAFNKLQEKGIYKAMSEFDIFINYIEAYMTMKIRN

B1: anti-IL-10 hum12G8 (antibody, human IgG1, kappa, V domains shown)
VH: QVQLVESGGGVVQPGRSLRLSCAASGFTFSDYHMAWVRQAPGKGLEWVASITLDATYTYYRDSVRGRFTISRDNSKNTLYLQMNSLRAEDTAVYYCARHRGFSVWLDYWGQGTLVTVSS
VL: DIQMTQSPSSLSASVGDRVTITCKTSQNIFENLAWYQQKPGKAPKLLIYNASPLQAGVPSRFSGSGSGTDFTLTISSLQPEDFATYYCHQYYSGYTFGPGTKLELKR
notes: Humanized antibody expressed in CHO cells; It was tested as 50 mg/mL drug product in 10 mM histidine, 7% sucrose, 0.02% PS-80, pH 5.5; also called humanized 12G8; hu12G8
- Potency Binding ELISA/Biological Potency, % (reference-to-sample EC50 ratio) (recombinant human IL-10 [1]): 115%
- Potency Binding ELISA/Biological Potency, % (reference-to-sample EC50 ratio) (recombinant human IL-10 [2]): 99%
- Potency Binding ELISA/Biological Potency, % (reference-to-sample EC50 ratio) (recombinant human IL-10 [3]): 105%
- Potency Binding ELISA/Biological Potency, % (reference-to-sample EC50 ratio) (recombinant human IL-10 [4]): 101%
